Laboratory results as given in patent US6299877.

Columns and labels:
[1] = target: IFN-αR2 (IFNAR2), type I interferon receptor subunit on cells (human) (UniProt P48551)
[2] = target: IFN-αR1 (IFNAR1), type I interferon receptor subunit on cells (human) (UniProt P17181)

growth inhibition of Daudi cells, IC50 [1]: 100 µM
growth inhibition of Daudi cells, IC50 [2]: 100 µM
Substance: Histidine (His)-tagged IFN-ε (IFN-ε^His), recombinant, expressed in E. coli (ligand)
